Patent US11248019B2, “Trityl-mono-GalNAc compounds and their use” (Hoffmann-La Roche Inc., priority 2016, dated 2022)

Assays:
Assay type in all cases: in vivo, C57BL6/J mice
[1] = Oligonucleotide content in liver and kidney by ELISA (Example 7); conditions: 0.1 mg/kg single iv dose
Experimental: (§1) Female C57BL6/J mice (5/group appr. 20 g at arrival) were injected intravenous (iv) with a single dose saline or 0.1 mg/kg of GalNAc conjugated LNA antisense oligonucleotide (Compound J, K, L, B or C of the invention or reference compound M). Blood samples of 50 μl were collected pre-dosing at day minus 6, and post dosing at day 3, 7, 10 and 14. The animals were sacrificed at day 7 or 14 and total serum was collected as well as liver and kidney.
The oligonucleotide content in the liver and kidney was measured using ELISA (see for example Straarup et al 2010 Nucleic Acid Res Vol 38 pp 7100-7111), results are shown in Table 16.

[2] = ALT in serum (Example 6)
Experimental: (§2) Female C57BL6/J mice (5/group appr. 20 g at arrival) were injected intravenous (iv) with a single dose saline, 0.22 mg/kg, 0.45 mg/kg or 0.89 mg/kg, of GalNAc conjugated LNA antisense oligonucleotide (Compound H, I or J of the invention) or the naked reference compound F. Blood samples of 50 μl were collected pre-dosing at day minus 6. The animals were sacrificed at day 3. Total serum was collected as well as liver and kidney.
ALT (Alanine aminotransferase) was measured using ABX Pentra ALT CP reagent (A11A01627 Triolab, Brondby, Denmark. The results are shown in Table 13.

[3] = tested on: ApoB mRNA; assay: ApoB mRNA knockdown in liver and kidney by qPCR, single iv dose 0.1 mg/kg, day 7 or 14 (Example 7); conditions: 0.1 mg/kg single iv dose
Experimental: (§3) ApoB mRNA knockdown was analyzed by qPCR. In brief, RNA was isolated from homogenized liver and kidney using MagnaPure RNA Isolation and purification system (catalog #03604721001 and #05467535001; Roche) according to the manufacturer's instructions. RT-QPCR was done using Taqman Fast Universal PCR Master Mix 2×(Applied Biosystems Cat #4364103) and Taqman gene expression assay (mApoB, Mn01545150_m1 and mGAPDH #4352339E) following the manufacturers protocol.
as §1
ApoB mRNA knock down was measured as described in example 4.

[4] = ALT in serum (Example 7); conditions: 0.1 mg/kg single iv dose
Experimental: as §1
ALT (Alanine aminotransferase) was measured using ABX Pentra ALT CP reagent (A11A01627 Triolab, Brondby, Denmark. The results are shown in table 17.

[5] = tested on: total cholesterol in serum; assay: Total cholesterol in serum (Example 6); conditions: day 3
Experimental: as §2
Total cholesterol in serum was measured using ABX Pentra Cholesterol CP (Triolab, Brondby, Denmark) according to the manufacturer's instructions.

[6] = Oligonucleotide content in liver and kidney by ELISA (Example 6); conditions: for Oligonucleotide content in kidney tissue / Oligonucleotide content in liver tissue: day 3
Experimental: as §2
The oligonucleotide content in the liver and kidney was measured using ELISA (see for example Straarup et al 2010 Nucleic Acid Res Vol 38 pp 7100-7111), results are shown in Table 11A and 11B.

[7] = tested on: ApoB mRNA; assay: ApoB mRNA knockdown in liver and kidney by qPCR, single iv dose, sacrifice day 3 (Example 6)
Experimental: as §3, §2

## 5′-GS^mCSaStStSgSgStSaStSTS^mCSA-3′ [Compound J]
[1]; Day 7, kidney tissue
  Oligonucleotide content, Avg kidney: 0.153 µg/g
[1]; Day 7, liver tissue
  Oligonucleotide content, Avg liver: 0.276 µg/g
[1]; Day 14, kidney tissue
  Oligonucleotide content, Avg kidney: 0.079 µg/g
[1]; Day 14, liver tissue
  Oligonucleotide content, Avg liver: 0.163 µg/g
[2]; 0.22 mg/kg single iv dose
  ALT levels (U/L) in serum at day 3 as % of saline: 101 % of saline
[2]; 0.45 mg/kg single iv dose
  ALT levels (U/L) in serum at day 3 as % of saline: 201 % of saline
[2]; 0.89 mg/kg single iv dose
  ALT levels (U/L) in serum at day 3 as % of saline: 1558 % of saline
[2]; in words, highest dose (0.89 mg/kg)
  ALT levels: some animals showed increase ALT levels
[3]; Day 7, kidney
  ApoB mRNA/mGAPDH expression as % of saline, Avg kidney: 83.9 % of saline
[3]; Day 7, liver
  ApoB mRNA/mGAPDH expression as % of saline, Avg liver: 56.0 % of saline
[3]; Day 14, kidney
  ApoB mRNA/mGAPDH expression as % of saline, Avg kidney: 96.8 % of saline
[3]; Day 14, liver
  ApoB mRNA/mGAPDH expression as % of saline, Avg liver: 107.6 % of saline
[4]; Day 7
  ALT levels (U/L) in serum as % of saline: 128.6 % of saline
[4]; Day 14
  ALT levels (U/L) in serum as % of saline: 126.1 % of saline
[5]; 0.22 mg/kg single iv dose
  serum cholesterol percent of saline: 37.3% of saline
[5]; 0.45 mg/kg single iv dose
  serum cholesterol percent of saline: 21.5% of saline
[5]; 0.89 mg/kg single iv dose
  serum cholesterol percent of saline: 10.0% of saline
[5]; in words, single iv dose
  serum cholesterol reduction: serum cholesterol reduction
[6]; 0.22 mg/kg single iv dose
  Oligonucleotide content in kidney tissue: 0.169 µg/g
  Oligonucleotide content in liver tissue: 0.313 µg/g
[6]; 0.45 mg/kg single iv dose
  Oligonucleotide content in kidney tissue: 0.549 µg/g
  Oligonucleotide content in liver tissue: 0.710 µg/g
[6]; 0.89 mg/kg single iv dose
  Oligonucleotide content in kidney tissue: 1.040 µg/g
  Oligonucleotide content in liver tissue: 1.478 µg/g
[6]; in words, tables 9 to 11
  liver to kidney ratio compared to unconjugated (naked) oligonucleotide (compound F): improved liver to kidney ratio
[7]; 0.22 mg/kg single iv dose
  ApoB mRNA expression as % of saline in kidney: 117.0 % of saline
  ApoB mRNA/mGAPDH expression as % of saline in liver: 12.8 % of saline
[7]; 0.45 mg/kg single iv dose
  ApoB mRNA expression as % of saline in kidney: 90.7 % of saline
  ApoB mRNA/mGAPDH expression as % of saline in liver: 6.3 % of saline
[7]; 0.89 mg/kg single iv dose
  ApoB mRNA expression as % of saline in kidney: 64.1 % of saline
  ApoB mRNA/mGAPDH expression as % of saline in liver: 3.0 % of saline
[7]; in words, single iv dose
  ApoB knock down in the liver: improved ApoB knock down in the liver
